Numbered stars: 1 amine (or outer) side, 2 acyl side, 3 side chain; on linkers, the order of the positions; unused ones are H or OH. Bridge positions count the residues as written; N and C are the ends. Square brackets hold non-standard residues; d marks the D form. Primed or numbered codes have the meaning given here. * marks the point of attachment. tMeBn(LuDOTA-AET) = 1,3,5-trimethylbenzylidene (from 1,3,5-tris(bromomethyl)benzene) bridge with two thioethers to the Cys, its third CH2 carries AET (2-aminoethanethiol, attached through S), whose amine is acylated by DOTA complexing lutet, O=C([O-])CN1CCN(CC(=O)[O-])CCN(CC(=O)NCCSCc2cc(C[*:1])cc(C[*:2])c2)CCN(CC(=O)[O-])CC1.[Lu+3]; tMeBn(DOTA-PP) = 1,3,5-trimethylbenzylidene, two thioethers to Cys, third CH2 bound to one N of piperazine whose other N bears DOTA, O=C(O)CN1CCN(CC(=O)O)CCN(CC(=O)N2CCN(Cc3cc(C[*:1])cc(C[*:2])c3)CC2)CCN(CC(=O)O)CC1; Ttds″ = 1,13-diamino-4,7,10-trioxatridecan-succinamic acid spacer, O=C(CCC(=O)[*:2])NCCCOCCOCCOCCCN[*:1]; TBMB(SCH2CH2NH-DOTA) = O=C(O)CN1CCN(CC(=O)O)CCN(CC(=O)NCCSCc2cc(C[*:1])cc(C[*:2])c2)CCN(CC(=O)O)CC1; Ttds = 1,13-diamino-4,7,10-trioxatridecan-succinamic acid, O=C(CCC(=O)[*:2])NCCCOCCOCCOCCCN[*:1]; DOTA = O=C(O)CN1CCN(CC(=O)O)CCN(CC(=O)*)CCN(CC(=O)O)CC1; nBu‑CAyl = n-butylaminocarbonyl, CCCCNC(=O)*; mXylylene = c1cc(C[*:1])cc(C[*:2])c1; AF488 = Alexa Fluor 488 label; Nle = CCCC[C@H](N)C(=O)O; Hexanoyl = CCCCCC(=O)*; GABA = NCCCC(=O)O; Sar = CNCC(=O)O
B1: nBu-CAyl-[Cys(tMeBn(DOTA-AET))-Nmg-Pro-Thr-Gln-Phe-Cys]-OH (peptide)
peptide: {nBu‑CAyl}-C[Sar]PTQFC-OH
modifications: linker 1-7 via TBMB(SCH2CH2NH-DOTA)
SMILES: CCCCNC(=O)N[C@H]1CSCc2cc(CSCCNC(=O)CN3CCN(CC(=O)O)CCN(CC(=O)O)CCN(CC(=O)O)CC3)cc(c2)CSC[C@@H](C(=O)O)NC(=O)[C@H](Cc2ccccc2)NC(=O)[C@H](CCC(N)=O)NC(=O)[C@H]([C@@H](C)O)NC(=O)[C@@H]2CCCN2C(=O)CN(C)C1=O
notes: also called 3BP-4607
B2: Hex-[Cys(tMeBn(DOTA-AET))-Nmg-Pro-Thr-Gln-Phe-Cys]-NH2 (peptide)
peptide: Hexanoyl-C[Sar]PTQFC-NH2
modifications: linker 1-7 via TBMB(SCH2CH2NH-DOTA)
SMILES: CCCCCC(=O)N[C@H]1CSCc2cc(CSCCNC(=O)CN3CCN(CC(=O)O)CCN(CC(=O)O)CCN(CC(=O)O)CC3)cc(c2)CSC[C@@H](C(N)=O)NC(=O)[C@H](Cc2ccccc2)NC(=O)[C@H](CCC(N)=O)NC(=O)[C@H]([C@@H](C)O)NC(=O)[C@@H]2CCCN2C(=O)CN(C)C1=O
notes: also called 3BP-3744
B3: Hex-[Cys(tMeBn(DOTA-PP))-Nmg-Pro-Thr-Gln-Phe-Cys]-OH (peptide)
peptide: Hexanoyl-C[Sar]PTQFC-OH
modifications: bridge 1-7; not fully specified (residue 1, bridges); printed as Hex-[Cys(tMeBn(DOTA-PP))-Nmg-Pro-Thr-Gln-Phe-Cys]-OH
notes: also called 3BP-3771
B4: DOTA-Ttds-Nle-[Cys(3MeBn)-Pro-Pro-Thr-Gln-Phe-Cys]-Asp-Ttds-Lys(DOTA)-NH2 (peptide)
peptide: {DOTA}-[Ttds][Nle]CPPTQFCD[Ttds]K(DOTA)-NH2
modifications: linker 3-9 via mXylylene
SMILES: CCCC[C@H](NC(=O)CCC(=O)NCCCOCCOCCOCCCNC(=O)CN1CCN(CC(=O)O)CCN(CC(=O)O)CCN(CC(=O)O)CC1)C(=O)N[C@H]1CSCc2cccc(c2)CSC[C@@H](C(=O)N[C@@H](CC(=O)O)C(=O)NCCCOCCOCCOCCCNC(=O)CCC(=O)N[C@@H](CCCCNC(=O)CN2CCN(CC(=O)O)CCN(CC(=O)O)CCN(CC(=O)O)CC2)C(N)=O)NC(=O)[C@H](Cc2ccccc2)NC(=O)[C@H](CCC(N)=O)NC(=O)[C@H]([C@@H](C)O)NC(=O)[C@@H]2CCCN2C(=O)[C@@H]2CCCN2C1=O
notes: also called 3BP-4393
B5: Hex-[Cys(tMeBn(DOTA-AET))-Pro-Pro-Thr-Gln-Phe-Cys]-Asp-Ttds-Lys(DOTA)-NH2 (peptide)
peptide: Hexanoyl-CPPTQFCD[Ttds″]K(DOTA)-NH2
modifications: linker 1-7 via TBMB(SCH2CH2NH-DOTA); not fully specified (residue 1); printed as Hex-[Cys(tMeBn(DOTA-AET))-Pro-Pro-Thr-Gln-Phe-Cys]-Asp-Ttds-Lys(DOTA)-NH2
notes: also called 3BP-4391
B6: Hex-[Cys(tMeBn(LuDOTA-AET))-Pro-Pro-Thr-Gln-Phe-Cys]-Asp-Gab-Arg-Ttds-Lys(AF488)-NH2 (peptide)
peptide: Hexanoyl-CPPTQFCD[GABA]R[Ttds″]K(AF488)-NH2
modifications: linker 1-7 via tMeBn(LuDOTA-AET); not fully specified (residue 1); printed as Hex-[Cys(tMeBn(LuDOTA-AET))-Pro-Pro-Thr-Gln-Phe-Cys]-Asp-Gab-Arg-Ttds-Lys(AF488)-NH2; also: DOTA complexing lutetium
notes: also called 3BP-4372
B7: Hex-[Cys(tMeBn(DOTA-PP))-Pro-Pro-Ala-Ala-Phe-Cys]-Asp-NH2 (peptide)
peptide: Hexanoyl-CPPAAFCD-NH2
modifications: linker 1-7 via tMeBn(DOTA-PP)
SMILES: CCCCCC(=O)N[C@H]1CSCc2cc(cc(CN3CCN(C(=O)CN4CCN(CC(=O)O)CCN(CC(=O)O)CCN(CC(=O)O)CC4)CC3)c2)CSC[C@@H](C(=O)N[C@@H](CC(=O)O)C(N)=O)NC(=O)[C@H](Cc2ccccc2)NC(=O)[C@H](C)NC(=O)[C@H](C)NC(=O)[C@@H]2CCCN2C(=O)[C@@H]2CCCN2C1=O
notes: also called 3BP-3746

What follows are binders tested against T1, human fibroblast activation protein (FAP) on WI-38 fibroblasts (human, UniProt Q12884 1-760) (assay: competitive FACS, WI-38 cells, Cy5-labeled peptide as competitor).
T1 construct: FAP-expressing human WI-38 fibroblasts (ECACC)

Row | pIC50 Category (FACS) [pIC50] | Binder
1 | > 8 | B1
2 | > 8 | Hexanoyl-CPPTQFCD-NH2 (linker 1-7 via tMeBn(H-O2Oc-AET), also called 3BP-4003) [Hex-[Cys-(tMeBn(H-O2Oc-AET))-Pro-Pro-Thr-Gln-Phe-Cys]-Asp-NH2]
3 | > 8 | B2
4 | > 8 | B3
5 | > 8 | B4
6 | > 8 | B5
7 | > 8 | B6
8 | ≤ 6 | B7

These binders were tested against Recombinant human FAP (R&D systems, #3715-SE) (human, UniProt Q12884 26-760) (assay: cell-based or functional assay).

Row | pIC50 Category (Activity) [pIC50] | Binder
9 | > 8 | B1
10 | > 8 | Hexanoyl-CPPTQFCD-NH2 (linker 1-7 via tMeBn(H-O2Oc-AET), also called 3BP-4003) [Hex-[Cys-(tMeBn(H-O2Oc-AET))-Pro-Pro-Thr-Gln-Phe-Cys]-Asp-NH2]
11 | > 8 | B2
12 | > 8 | B3
13 | > 8 | B4
14 | > 8 | B5
15 | > 8 | B6
